Laboratory results from PMC10318464, “A CsoR family transcriptional regulator, TTHA1953, controls the sulfur oxidation pathway in Thermus thermophilus HB8” (The Journal of Biological Chemistry, 2023).

T1: TTHA1953 (Thermus thermophilus HB8, UniProt Q5SGX7 1-93)
T1 sequence: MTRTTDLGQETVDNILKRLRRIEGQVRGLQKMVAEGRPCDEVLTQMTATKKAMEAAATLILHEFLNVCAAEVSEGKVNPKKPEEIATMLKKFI


Legend:
[1] = target: T1, TTHA1953; assay: BLI; 1 mM DTT; BLI: 20 mM Tris pH 7.5, 100 mM NaCl, 1 mM EDTA, 0.05% Tween-20, 1 mM DTT, 37 C; REPSA: 1x CutSmart, 1 mM DTT, 55 C 20 min then 37 C (REPA details not in materia); settings: protein: recombinant, chain copies: 8, blunt
[2] = target: T1, TTHA1953; assay: as above; settings: protein: recombinant; chain copies: 8; label: 5' biotin on ST2R strand; blunt
[3] = target: the molecule itself; assay: native gel or EMSA; adaptation of a Ferguson plot; apparent weight of the TTHA1953 complex bound to its consensus-sequence DNA (Fig. S3)
[4] = target: the molecule itself; assay: non-reducing SDS-PAGE; 2 μg recombinant TTHA1953 treated with buffer, 10 mM CuCl2 or H2O2 for 20 min; Laemmli buffer with or without 350 mM β-mercaptoethanol; Coomassie staining
[5] = label: 5' biotin on ST2R strand

Binder | Kd fold-change relative to consensus [2] | binding result [1, 5] | further results
Control (dsDNA) DNA 1: CCTCTCTATGGGCAGTCGGTGATCTAGGAATTCGTGCAGAGGTGACGTCATAGAATTCGCATCCCTCCAGAAGCTTGGAC DNA 2: GTCCAAGCTTCTGGAGGGATGCGAATTCTATGACGTCACCTCTGCACGAATTCCTAGATCACCGACTGCCCATAGAGAGG |  |  | binding result ([1]; label: 5' IRDye800 on ControlL strand (REPA)): no binding
ST2_1953_mt7 (spacer +1) (dsDNA) DNA 1: CTAGGAATTCGTGCAGAGGTGATACTATACCTCTGGTATGGTACATCCCTCCAGAAGCTTGGAC DNA 2: GTCCAAGCTTCTGGAGGGATGTACCATACCAGAGGTATAGTATCACCTCTGCACGAATTCCTAG | ~10 fold higher Kd than consensus |  | 
ST2_1953_mt9 (dsDNA) DNA 1: CTAGGAATTCGTGCAGAGGTGAGCTTATACCTTGTGCTGGTACATCCCTCCAGAAGCTTGGAC DNA 2: GTCCAAGCTTCTGGAGGGATGTACCAGCACAAGGTATAAGCTCACCTCTGCACGAATTCCTAG |  | no binding | 
ST2_1953_mt10 (dsDNA) DNA 1: CTAGGAATTCGTGCAGAGGTGAGCTTAGCTCTTGGTATGGTACATCCCTCCAGAAGCTTGGAC DNA 2: GTCCAAGCTTCTGGAGGGATGTACCATACCAAGAGCTAAGCTCACCTCTGCACGAATTCCTAG |  | no binding | 
TTHA1953, CsoR-like protein from Thermus thermophilus HB8 (natural protein, UniProt Q5SGX7 1-93, looked up, TTHA1953, CsoR-like protein of Thermus thermophilus HB8; expression vector TEx04A02 bought from RIKEN BioResource Research Center; has two cysteines (C39, C68); No tag is mentioned; Estimated homo-octamer weight 83 kDa, so about 10 kDa a chain; also called CsoR family transcriptional regulator; source: E. coli Rosetta 2 (DE3), purified (1 M NaCl extraction of the pellet after sonication, 70 °C …)) MTRTTDLGQETVDNILKRLRRIEGQVRGLQKMVAEGRPCDEVLTQMTATKKAMEAAATLILHEFLNVCAAEVSEGKVNPKKPEEIATMLKKFI |  |  | stoichiometry N [3]: 8; stoichiometry N [4]: 2
ST2_1953_mt8 (spacer -1) (dsDNA) DNA 1: CTAGGAATTCGTGCAGAGGTGATACTATACCTGGTATGGTACATCCCTCCAGAAGCTTGGAC DNA 2: GTCCAAGCTTCTGGAGGGATGTACCATACCAGGTATAGTATCACCTCTGCACGAATTCCTAG | ~15 fold higher Kd than consensus |  | 
